Target: His-BRD4-N (amino acids 1-500), O60885

B1: GST-SPOP (protein)
chain: MSRVPSPPPPAEMSSGPVAESWCYTQIKVVKFSYMWTINNFSFCREEMGEVIKSSTFSSGANDKLKWCLRVNPKGLDEESKDYLSLYLLLVSCPKSEVRAKFKFSILNAKGEETKAMESQRAYRFVQGKDWGFKKFIRRDFLLDEANGLLPDDKLTLFCEVSVVQDSVNISGQNTMNMVKVPECRLADELGGLWENSRFTDCCLCVAGQEFQAHKAILAARSPVFSAMFEHEMEESKKNRVEINDVEPEVFKEMMCFIYTGKAPNLDKMADDLLAAADKYALERLKVMCEDALCSNLSVENAAEILILADLHSADQLKTQAVDFINYHASDVLETSGWKSMVVSHPHLVAEAYRSLASAQCPFLGPPRKRLKQS
- in vitro ubiquitination assay: The SPOP-CULLIN3-RBX1 complex was shown to catalyzed BRD4 ubiquitination in vitro

Source: patent US20210361653
